Measured values: US20220064302A1 (GIGAGEN, published 2022)

B1: A14 (antibody, V domains shown)
VH: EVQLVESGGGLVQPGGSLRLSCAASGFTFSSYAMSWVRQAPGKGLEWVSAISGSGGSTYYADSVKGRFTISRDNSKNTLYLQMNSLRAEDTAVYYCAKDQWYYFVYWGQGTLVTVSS
VL: DIQMTQSPSSLSASVGDRVTITCRASQGIRNDLGWYQQKPGKAPKRLIYVASSLQSGVPSRFSGSGSGTEFTLTISSLQPEDFATYYCLQHNSYPLTFGGGTKVEIK
notes: Tested as full-length mAb expressed in CHO cells; also called antibody 14; L14H14
B2: A9 (antibody, V domains shown)
VH: QVQLVESGGGVVQPGRSLRLSCAASGFTFSNYGMHWVRQAPGKGLEWVAVIWYDGTNKFYADSVKGRFTISRDNSKNTLYLQMNSLRAEDTAVYYCATNSDDYWGQGTLVTVSS
VL: AIQMTQSPSSLSASVGDRVTITCRASQDIRNDLGWYQQKPGKAPKLLIYAASLLRSGVPSRFSGSGSGTDFTLTISSLQPEDFATYYCLQDNNYPRTFGQGTKVEIK
notes: Tested as full-length mAb expressed in CHO cells; also called antibody A9; L9H9
B3: A10 (antibody, V domains shown)
VH: QVQLVQSGAEVKKPGASVKVSCKASGYTFAIYGISWVRQAPGQGLEWMGWISAYSDNSNYAQKLQGRVTMTTDTSTSTAYMELRSLRSDDTAVYYCVRDGSHGDYYYGMDVWGQGTTVTVSS
VL: DIQMTQSPSSLSASVGDRVTITCRASQGISSWLAWYQQKPEKAPKSLIYAASSLQSGVPSRFSGSGSGTDFTLTISSLQPEDFATYYCQQYNSYPYTFGQGTKLEIK
notes: Tested as full-length mAb expressed in CHO cells; also called antibody A10; L10H10
B4: A4 (antibody, V domains shown)
VH: QVQLVQSGAEVKKPGASVKVSCKASGYTFATYGVSWVRQAPGQGLEWMGWISAYSDNINYAQNLQGRVTITTDTSTSTAYMELRSLRSDDTAVYYCARDGSHGDYYYGMDVWGQGTTVTVSS
VL: DIQMTQSPSSLSASVGDRVTITCRASQGISSWLAWYQQKPEKAPKSLIYAASSLQSGVPSRFSGSGSGTDFTLTISSLQPEDFATYYCQQYNSYPYTFGQGTKLEIKR
notes: Tested as full-length mAb expressed in CHO cells; also called antibody A4; L4H4
B5: A8 (antibody, V domains shown)
VH: QVQLVESGGGVVQPGRSLRLSCAASGFTFSSYGMHWVRQAPGKGLEWVAVIWYDGSIKYYADSVKGRFTISRDNSKNTLYLQMNSLRAEDTAVYYCANDILTGSFDYWGQGTLVTVSS
VL: EIVLTQSPATLSLSPGERATLSCRASQSVSSYLAWYQQKPGQAPRLLIYDASNRATGIPARFSGSGSGTDFTLTISSLEPEDFAVYYCQQRNTWPYTFGQGTKLEIKR
notes: Tested as full-length mAb expressed in CHO cells; also called antibody A8; L8H8
B6: A6 (antibody, V domains shown)
VH: QVQLVESGGGVVQPGRSLRLSCAASGFTFSSYGMHWVRQAPGKGLEWVAVIWYDGSNKYYADSVKGRFTISRDNSKNTLYLQMNSLRAEDTAVYYCAGGGNYWGDFWGQGTLVTVSS
VL: DIQMTQSPSSLSASVGDRVTITCRASQGIRNDLGWYQQKPGKAPKRLLYAASNLQLGVPSRFSGSGSETEFTLTISSLQPEDFATYYCLQHNSYPWTFGQGTKVEIKR
notes: Tested as full-length mAb expressed in CHO cells; also called antibody A6; L6H6
B7: Pembrolizumab (antibody, V domains shown)
VH: QVQLVQSGVEVKKPGASVKVSCKASGYTFTNYYMYWVRQAPGQGLEWMGGINPSNGGTNFNEKFKNRVTLTTDSSTTTAYMELKSLQFDDTAVYYCARRDYRFDMGFDYWGQGTTVTVSS
VL: EIVLTQSPATLSLSPGERATLSCRASKGVSTSGYSYLHWYQQKPGQAPRLLIYLASYLESGVPARFSGSGSGTDFTLTISSLEPEDFAVYYCQHSRDLPLTFGGGTKVEIKR

Tests used:
PD-1 expressed on cells [1] = target: T1, PD-1 expressed on cells (human, UniProt Q15116 25-288); assay: flow cytometry on PD-1 expressing Flp-In CHO cells
T1 construct: also called PD-1 expressed in CHO cells

[2] = target: T2, human PD-1 (soluble PD-1 protein, R&D Systems) (human, UniProt Q15116 25-170, limits assumed); assay: BLI (Octet Red96), mAb on AHC biosensor, PD-1 as analyte
T2 construct: the kinetics paragraphs say only 'PD-1' / 'antigen'; also called hPD-1; soluble PD-1 immunogen
Method: (§1) For BLI, antibodies were loaded onto an Anti-Human IgG Fc (AHC) biosensor using the Octet Red96 system (ForteBio). Loaded biosensors were dipped into antigen dilutions beginning at 300 nM, with 6 serial dilutions at 1:3. Kinetic analysis was performed using a 1:1 binding model and global fitting.

PD-1 expressed on cells [3] = target: T1, PD-1 expressed on cells; assay: cell-based or functional assay
[4] = target: T2, human PD-1 (soluble PD-1 protein, R&D …); assay: array SPR, mAb captured on anti-human IgG Fc, PD-1 as analyte
Method: (§2) For SPR, a moderate density (»1,000 Response Units) of an antihuman IgG-Fc reagent (Southern Biotech 2047-01) was amine-coupled to a Xantec CMD-50M chip (50 nm carboxymethyldextran medium density of functional groups) activated with 133 mM EDC (Sigma) and 33.3 mM S-NHS (ThermoFisher) in 100 mM MES pH 5.5. Then, goat anti-Human IgG Fc (Southern Biotech 2047-01) was coupled for 10 minutes at […] in 10 mM Sodim Acetate pH 4.5 (Carterra Inc.). The surface was then deactivated with 1 M ethanolamine pH 8.5 (Carterra Inc.). Running buffer used for the lawn immobilization was HBS-EPC (10 mM HEPES, 150 mM NaCl, 3 mM EDTA, 0.05% Tween 20, pH 7.4; Teknova).
(§3) The sensor chip was then transferred to a continuous flow microspotter (CFM; Carterra Inc.) for array capturing. The mAb supernatants were diluted 50-fold ([…] final concentration) into HBS-EPC with 1 mg/mL BSA. The samples were each captured twice with 15-minute and 4-minute capture steps on the first and second prints, respectively, to create multiple densities, using a […] flow rate. The running buffer in the CFM was also HBS-EPC.
(§4) Next, the sensor chip was loaded onto an SPR reader (MX-96 system; Ibis Technologies) for the kinetic analysis. […] PD-1 injections were 5 minutes with a 15-minute dissociation at […] in a non-regenerative kinetic series. An injection of the goat anti-Human IgG Fc capture antibody at […] was injected at the end of the series to verify the capture level of each mAb. Binding data was double referenced by subtracting an interspot surface and a blank injection and analyzed for ka (on-rate), kd (off-rate), and KD (affinity) using the Kinetic Interaction Tool software (Carterra Inc.).

[5] = target: T2, human PD-1 (soluble PD-1 protein, R&D …); assay: array SPR (Carterra), mAb captured, PD-1 as analyte
Method: as §2, §3, §4

Cyno PD-1 = target: T3, Cyno PD-1 (cyno); assay: BLI, mAb on AHC biosensor, cyno PD-1 as analyte
T3 construct: also called cynomolgus PD-1
Method: The binding specificity and affinity of each full-length antibody towards PD-1 were determined using BLI and/or SPR. […] Anti-cyno PD-1 affinity was measured using BLI.
as §1

T2 sequence (Q15116 25-170 limits assumed): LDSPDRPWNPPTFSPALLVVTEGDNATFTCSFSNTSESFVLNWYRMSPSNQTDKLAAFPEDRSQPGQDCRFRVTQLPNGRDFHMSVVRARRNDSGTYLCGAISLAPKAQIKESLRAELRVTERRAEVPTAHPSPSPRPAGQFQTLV
T1 sequence (Q15116 25-288 limits assumed): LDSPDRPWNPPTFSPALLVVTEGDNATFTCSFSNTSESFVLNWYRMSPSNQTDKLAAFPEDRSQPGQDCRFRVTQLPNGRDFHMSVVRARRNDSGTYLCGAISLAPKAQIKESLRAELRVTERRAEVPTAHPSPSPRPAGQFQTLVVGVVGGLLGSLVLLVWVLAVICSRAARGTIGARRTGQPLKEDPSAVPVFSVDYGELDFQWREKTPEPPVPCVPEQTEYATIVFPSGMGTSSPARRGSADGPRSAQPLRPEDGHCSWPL

Row | Binder | binding result (PD-1 expressed on cells [1]) | binding result [2] | PD-1/PD-L1 blockage (IC50, µg/ml) (PD-1 expressed on cells [3]) [µg/mL] | Kd [4] [nM] | Kd [5] [nM] | koff [5] [s⁻¹] | kon [5] [M⁻¹ s⁻¹] | Kd (Cyno PD-1) [nM]
1 | B1 | binds | no binding (tested: antigen dilutions beginning at 300 nM) | – | – | – | – | – | –
2 | B2 | – | – | 0.461 | 24 | 24 | 0.00079 | 32000 | 42
3 | B3 | – | – | 1.64 | 10 | 10 | 6.9e-05 | 6600 | 12
4 | B4 | – | – | 2.12 | 20 | 20 | 0.00025 | 12000 | 0.1
5 | B5 | – | – | – | 410 | 410 | 0.035 | 84000 | 447
6 | B6 | – | – | 1.12 | 70 | 70 | 0.00086 | 12000 | 26
7 | B7 | – | – | – | – | – | – | – | 14
